# Assay results: article PMC7939470 (The Journal of Biological Chemistry, 2021)
# Like-named read-outs stand apart in the source and are kept apart here. Where no end group is shown, it is not given here.
# B1: FITC-labeled BLM_(290-301) peptide (peptide, UniProt P54132 290-301, looked up)
# peptide: EFDDDDYDTDFV
# modifications: also: FITC via 6-aminohexanoic acid spacer, end not given here
# notes: also called BLM peptide; source: synthetic peptide, bought: AnyGen
# B2: FITC-labeled BLM_(153-165) peptide (peptide, UniProt P54132 153-165, looked up)
# peptide: DWDDMDDFDTSET
# modifications: also: FITC via 6-aminohexanoic acid spacer, end not given here
# notes: as for B1
# Key:
# [1] = biological target: T1, RPA70N (N-terminal domain of RPA70, RPA70N1–120) (Homo sapiens, UniProt P27694); settings: RPA70N binding, cited from earlier work
# T1 construct: RPA70N1–120 and RPA70A181–304 were expressed and purified as described previously; made in house
# [2] = system: RPA70N–BLM peptide complex; test: Competitive FPA assay, unlabeled pmRPA32 peptide against FITC-labeled BLM peptide on RPA70N; assay type: binding; settings: 0–250 μM unlabeled pmRPA32 peptide; 6 μM (BLM153-165) or 13 μM (BLM290-301) RPA70N; 500 nM FITC-labeled BLM peptide; repeated three times; Fig. S4
# Description: For FITC labeling, a 6-aminocaproic acid (6-aminohexanoic acid) spacer was used. Increasing concentrations (0–150 μM) of RPA70N or RPA70A were prepared in an assay buffer of 20 mM HEPES, 100 mM NaCl, 2 mM DTT, pH 7.4, in Corning 96-well black flat-bottom plates (polystyrene, nontreated). To each well, FITC-RPA32 peptide was added to a final concentration of 50 nM, and the plates were incubated on a shaker for 1 h at 25 °C. The total volume of the reaction sample was 50 μl. The emission polarization anisotropy was calculated by referring to a previous publication ([5]). The fluorescence was measured using BioTek Cytation5 and GENE5 software (GIST, Gwangju) with excitation and emission wavelengths of 485 and 528 nm, respectively. […] All experiments were repeated three times, and dissociation constants (Kd) were calculated using the “one site–specific” fitting model of the GraphPad software. The equation used in the fitting is as follows, (Eq. 1) y=Bmax×X/Kd+X where y is the fluorescence anisotropy, Bmax is the maximum specific binding, Kd is the equilibrium binding constant, and X is the concentration of RPA. […] Equilibrium fluorescence measurements were performed in the same way as described above. […]
# Competitive fluorescence polarization anisotropy of BLM peptide, RPA70N, and pmRPA32 peptide. […]
# RPA70A (RPA70A181–304) = test: Fluorescence polarization anisotropy (FPA) assay, FITC-labeled peptide + RPA70A; assay type: binding; settings: 50 nM FITC-labeled peptide, 0–150 μM RPA70A, pH 7.4, 25 °C, anisotropy not saturated, not fitted
# Description: RPA70N1–120 and RPA70A181–304 were expressed and purified as described previously ([5], [30]). ^15N-Labeled RPA70N was also expressed and purified with the same method using M9 medium. All of the synthesized peptides except for the FITC-labeled peptide were purchased from Lugen Sci (Gyeonggi-do, Korea). FITC-labeled peptides were purchased from AnyGen (Gwangju, Korea). Purchased peptides were dissolved in 20 mM HEPES, 100 mM NaCl, 2 mM DTT, pH 7.4, buffer to make a 2 mM stock and stored at −20 °C until use.
# For FITC labeling, a 6-aminocaproic acid (6-aminohexanoic acid) spacer was used. […] The emission polarization anisotropy was calculated by referring to a previous publication ([5]). The fluorescence was measured using BioTek Cytation5 and GENE5 software (GIST, Gwangju) with excitation and emission wavelengths of 485 and 528 nm, respectively. […] All experiments were repeated three times, and dissociation constants (Kd) were calculated using the “one site–specific” fitting model of the GraphPad software. The equation used in the fitting is as follows, (Eq. 1) y=Bmax×X/Kd+X where y is the fluorescence anisotropy, Bmax is the maximum specific binding, Kd is the equilibrium binding constant, and X is the concentration of RPA. […] Equilibrium fluorescence measurements were performed in the same way as described above. […]
# [3] = biological target: T2, RPA70N_(1–120), N-terminal domain of RPA70 (DBD-F) (UniProt P27694 1-120); test: fluorescence polarisation; FPA; 0–150 μM RPA70N or RPA70A titrated to 50 nM FITC-labeled peptide; 20 mM HEPES, 100 mM NaCl, 2 mM DTT, pH 7.4; 1 h at 25 °C; one site–specific fit; settings: both partners purified
# T2 construct: Replication protein A 70-kDa subunit (RPA70), N-terminal domain (DBD-F), residues 1-120; Uniformly 15N-labelled in the NMR titrations, unlabelled in the FPA assays; also called 15N-labeled RPA70N; source: 15N-labeled form by the same method using M9 medium
# [4] = biological target: T2, RPA70N_(1–120), N-terminal domain of …; test: fluorescence polarisation; competitive FPA; 0–250 μM unlabeled pmRPA32 peptide added to 6 μM (for BLM 153-165) or 13 μM (for BLM 290-301) RPA70N and 500 nM FITC-labeled BLM peptide; 20 mM HEPES, 100 mM NaCl, 2 mM DTT, pH 7.4; settings: both partners purified
# [5] = biological target: T2, RPA70N_(1–120), N-terminal domain of …; test: fluorescence polarisation; FPA; 0–150 μM RPA70N or RPA70A titrated to 50 nM FITC-labeled peptide; 20 mM HEPES, 100 mM NaCl, 2 mM DTT, pH 7.4; 1 h at 25 °C; one site–specific fit; settings: both partners purified; remark: listed apart in the source
# [6] = measured with the same FPA method
molecule,measurement,setting,value
"ATRIP54–68: RPA70N-binding sequence of ATRIP (DFTADDLEELDTLAS; UniProt Q8WXE1 54-68, looked up, fragment)",Kd,[1],28.6 ± 3.1 µM
"MRE11_539–553: RPA70N-binding sequence of MRE11 (AFSADDLMSIDLAEQ; UniProt P49959 539-553, looked up, fragment)",Kd,[1],65.8 ± 23.7 µM
"RAD9_297–311: RPA70N-binding sequence of RAD9 (DFANDDIDSYMIAME; UniProt Q99638 297-311, looked up, fragment)",Kd,[1],51.4 ± 8.9 µM
p53_44–58: RPA70N-binding sequence of p53,Kd,[1],99.9 ± 8.4 µM
"BLM290–301: acidic RPA70N-binding peptide from the N-terminal region of Bloom syndrome protein (EFDDDDYDTDFV; also: FITC via 6-aminohexanoic acid spacer, end not given here)",Kd,[1]; [6],13.5 ± 2.4 µM
"BLM153–165: acidic RPA70N-binding peptide from the N-terminal region of Bloom syndrome protein (DWDDMDDFDTSET; also: FITC via 6-aminohexanoic acid spacer, end not given here)",Kd,[1]; [6],5.76 ± 0.86 µM
C[C@H](NC(=O)CNC(=O)CNC(=O)[C@H](Cc1ccc(O)cc1)NC(=O)[C@H](CC(=O)O)NC(=O)[C@H](CC(=O)O)NC(=O)[C@H](CC(=O)O)NC(=O)CNC(=O)[C@H](Cc1ccc(O)cc1)NC(=O)[C@H](CC(=O)O)NC(=O)CCCCCNC(=S)Nc1ccc2c(c1)C(=O)OC21c2ccc(O)cc2Oc2cc(O)ccc21)C(=O)NCC(=O)NCC(=O)N[C@@H](Cc1ccc(O)cc1)C(=O)N[C@@H](CC(=O)O)C(=O)N[C@@H](CCC(N)=O)C(=O)N[C@@H](CC(=O)O)C(=O)N1CCC[C@H]1C(=O)NCC(=O)NCC(=O)N[C@@H](Cc1ccccc1)C(=O)NCC(=O)N[C@@H](CC(=O)O)C(=O)N1CCC[C@H]1C(=O)N[C@@H](C)C(=O)N1CCC[C@H]1C(=O)N[C@@H](CC(=O)O)C(=O)O [pmRPA32],Competition with FITC-labeled BLM peptide for RPA70N,[2],did not compete with BLM peptide
same,Binding to RPA70A (in words),RPA70A (RPA70A181–304),does not bind
"DYGDDDAGGAGGYDQDPGGFGDPAPD (peptide, UniProt P15927 8-33, looked up, also: FITC with 6-aminohexanoic acid spacer, end not given here) [FITC-labeled pmRPA32-Y14A peptide]",Kd,[3],37 ± 0.6 µM
"DYGDDDYGGAGGYDQDPGGAGDPAPD (peptide, UniProt P15927 8-33, looked up, also: FITC with 6-aminohexanoic acid spacer, end not given here) [FITC-labeled pmRPA32-F27A peptide]",Kd,[3],21.7 ± 0.5 µM
"DYGDDDYGGAGGADQDPGGFGDPAPD (peptide, UniProt P15927 8-33, looked up, also: FITC with 6-aminohexanoic acid spacer, end not given here) [FITC-labeled pmRPA32-Y20A peptide]",Kd,[3],24.5 ± 0.7 µM
"DAGDDDYGGAGGYDQDPGGFGDPAPD (peptide, UniProt P15927 8-33, looked up, also: FITC with 6-aminohexanoic acid spacer, end not given here) [FITC-labeled pmRPA32-Y9A peptide]",Kd,[3],40 ± 0.7 µM
B1,binding result,[4],binds
B2,binding result,[4],binds
"DYGDDDYGGAGGYDQDPGGFGDPAPD (peptide, UniProt P15927 8-33, looked up, also: FITC with 6-aminohexanoic acid spacer, end not given here) [FITC-labeled pmRPA32_(8–33) peptide (phosphomimetic RPA32, eight aspartic acids)]",Kd,[5],21.5 ± 0.6 µM
